The assay addresses rat PD-L1 (rat) (UniProt D4AE25). The assay is described as follows: flow cytometry (FACS); rat cells or protein not described. In general terms: A flow cytometer gives signals particle by particle.

pEC50: −log10 of the molar value.

Broadly, the pEC50 is −log10 of the EC50, conventionally taken in molar units. On to YW243.55.S70 (IgG) (antibody), for which the pEC50 is 9.10.

The record behind these values is US20130045200A1.
